Source: doi:10.1101/2020.07.06.189977 (bioRxiv, 2020)

Target: the molecule itself
Assay: crystal structure

B1: ERα-L372S/L536S double-mutant ligand-binding domain (LBD, amino acid residues 298–554) (domain or fragment, UniProt P03372 298-554, looked up)
chain: IKRSKKNSLALSLTADQMVSALLDAEPPILYSEYDPTRPFSEASMMGLLTNLADRELVHMINWAKRVPGFVDLTSHDQVHLLECAWLEILMIGLVWRSMEHPGKLLFAPNLLLDRNQGKCVEGMVEIFDMLLATSSRFRMMNLQGEEFVCLKSIILLNSGVYTFLSSTLKSLEEKDHIHRVLDKITDTLIHLMAKAGLTLQQQHQRLAQLLLILSHIRHMSNKGMEHLYSMKCKNVVPSYDLLLEMLDAHRLHAPTS
- binding result: binds
